Measured values reported in paper PMC9637899.

B1: activated C1s–CCP1–CCP2–SP [human] / ElpB_(182–378) [B. burgdorferi] (parent)
chain 1: MPCPKEDTPNSVWEPAKAKYVFRDVVQITCLDGFEVVEGRVGATSFYSTCQSNGKWSNSKLKCQPVDCGIPESIENGKVEDPESTLFGSVIRYTCEEPYYYMENGGGGEYHCAGNGSWVNEVLGPELPKCVPVCGVPREPFEEKQRIIGGSDADIKNFPWQVFFDNPWAGGALINEYWVLTAAHVVEGNREPTMYVGSTSVQTSRLAKSKMLTPEHVFIHPGWKLLEVPEGRTNFDNDIALVRLKDPVKMGPTVSPICLPGTSSDYNLMDGDLGLISGWGRTEKRDRAVRLKAARLPVAPLRKCKEVKVEKPTADAEAYVFTPNMICAGGEKGMDSCKGDSGGAFAVQDPNDKTKFYAAGLVSWGPQCGTYGLYTRVKNYVDWIMKTMQENSTPRED
chain 2: QERKAKAEKEAKEKAERQKQEEQQKRKAEKEREEQRKEAEKRQVDNEIRTLTGKIDEINRNIDVIKEQTSVGAQGVIDRITGPVYDDFTDGNKAIYKTWGDLEDDNDEGLGKLLKELSDTRHNLRTKLNEGNKAYIIDTRSTEPQLKENVSVSEIKSDLDELKSKLEEVKEYLEDKDNFEEIKEYVAGSEDNYDEED

Variants of: B1
Assay: SPR
Settings: with ElpB_(182–378) [B. burgdorferi]; steady-state response at the highest analyte concentration plotted (about 5e-7 M on the x axis); ElpB182-378 immobilized, C1s construct injected; parent: 79; read off a plot

**Q.** With chain 1 E35A D67A K284A R285A R290A K292A as the variant, how does the response read?
**A.** 0 RU

**Q.** For chain 1 K284A R285A R290A K292A, which response is on record?
**A.** 7 RU
